{
  "source": "paper PMC12093976",
  "about": "“Characterization of 2-phenanthroyl-CoA reductase, an ATP-independent type III aryl-CoA reductase involved in anaerobic phenanthrene degradation” (Applied and Environmental Microbiology, 2025)",
  "tested_on": "T1, CC(C)(COP(=O)(O)OP(=O)(O)OC[C@H]1O[C@@H](n2cnc3c(N)ncnc32)[C@H](O)[C@@H]1OP(=O)(O)O)[C@@H](O)C(=O)NCCC(=O)NCCSC(=O)c1ccc2c(ccc3ccccc32)c1",
  "T1 construct": "codon-optimized gene in pASG-IBA103, C-terminal twin-Strep-tag, E. coli BL21(DE3); 72 kDa monomer; FMN, FAD, [4Fe-4S]; primers encode N-terminal MKLFEPIK and C-terminal LAALH",
  "assay": "LC/MS of dihydro-2-phenanthroyl-CoA formation, initial rates",
  "type": "biochemical, uncultured Desulfobacterium sp.",
  "details": "dithionite-reduced methyl viologen as electron donor, 1 mM NADH, 50 µM FMN, 1 mM FAD, 50 mM HEPES pH 7.5, 30 °C, anoxic, substrate varied 2-100 µM",
  "excerpt": "LC/MS of dihydro-2-phenanthroyl-CoA formation, initial rates on 2-phenanthroyl-CoA reductase",
  "data": [
    {"substance": "2-phenanthroyl-CoA reductase (uncultured Desulfobacterium sp.)", "values": [
      {"measurement": "Km", "result": 1.8, "unit": "µM"},
      {"measurement": "Vmax", "result": 7.9, "unit": "µmol/min/mg"}
    ]}
  ]
}
